Laboratory results from patent US20040147432A1 (MERCK, published 2004).
Bridges are numbered along the chain shown (N, C = ends). [ ]: non-standard residue; d: D form. dCha = N[C@H](CC1CCCCC1)C(=O)O; Aib = CC(C)(N)C(=O)O

Legend:
human MCH-1R [1] = biological target: T1, human MCH-1R (human, UniProt Q99705 1-353); experiment: cell-based or functional assay
[2] = biological target: T2, human melanin concentrating hormone type 2 receptor (MCH-2R) (human, UniProt Q969V1 1-340); experiment: cell-based or functional assay
T2 sequence (Q969V1 whole entry, form in doubt): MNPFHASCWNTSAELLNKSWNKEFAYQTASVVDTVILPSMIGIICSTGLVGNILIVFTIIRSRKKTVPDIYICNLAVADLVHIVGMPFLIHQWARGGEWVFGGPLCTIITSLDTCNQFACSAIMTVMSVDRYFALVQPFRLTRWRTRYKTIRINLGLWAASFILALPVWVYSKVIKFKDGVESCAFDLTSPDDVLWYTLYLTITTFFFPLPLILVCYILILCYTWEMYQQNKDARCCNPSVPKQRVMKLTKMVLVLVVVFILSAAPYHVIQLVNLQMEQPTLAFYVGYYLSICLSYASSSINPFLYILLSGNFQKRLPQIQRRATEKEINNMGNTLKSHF

human MCH-1R [3] = biological target: T1, human MCH-1R; experiment: SPA competition with [125I]-human MCH (Phe13, Tyr19) on receptor membranes
Description: (§1) For the SPA-based assay, WGA-PVT beads (NEN Life Sciences Products) were resuspended in Dulbecco's PBS with calcium and magnesium (500 mg beads in 4 ml PBS). […] The suspension was mixed gently for 20 minutes, 12.3 ml of assay buffer and protease inhibitors were added (final concentration given): 2 μg/ml leupeptin, 10 μM phosphoramidon, 40 μg/ml bacitracin, 5 μg/ml aprotinin, 0.1 mM Pefabloc.
(§2) Coated beads were kept on ice until use. […] Binding reactions were allowed to proceed at room temperature for 3 hours. Quantitation was performed by scintillation counting (TopCount device).

[4] = biological target: T2, human melanin concentrating hormone …; experiment: as above
Description: as §1, §2

T1 sequence (Q99705 whole entry, form in doubt): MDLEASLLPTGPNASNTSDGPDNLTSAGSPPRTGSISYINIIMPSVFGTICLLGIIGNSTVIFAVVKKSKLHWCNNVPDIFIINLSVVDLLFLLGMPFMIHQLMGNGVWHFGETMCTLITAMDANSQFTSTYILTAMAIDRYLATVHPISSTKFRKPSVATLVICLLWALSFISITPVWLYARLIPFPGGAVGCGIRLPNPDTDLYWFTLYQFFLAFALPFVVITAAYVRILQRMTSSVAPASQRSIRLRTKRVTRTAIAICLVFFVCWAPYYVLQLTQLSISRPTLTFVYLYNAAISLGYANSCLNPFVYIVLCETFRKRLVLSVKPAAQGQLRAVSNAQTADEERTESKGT

Ac-RCML[dF]RVYRPC-NH2 (disulfide 2-11 (inferred), also called D-Phe^10) [SEQ. ID. NO. 17]
Activation % at 10 µM (aequorin functional assay) (human MCH-1R [1]): 5%
EC50 (aequorin functional assay) (human MCH-1R [1]): > 10000 nM
Activation % at 10 µM (aequorin functional assay) [2]: 102%
EC50 (aequorin functional assay) [2]: 25 nM
IC50 (human MCH-1R [3]): 18 nM
IC50 [4]: 47 nM

RCMLGXVYRPC (Arg(NO2)^11 (nitroarginine), also called Arg(NO2)^11) [SEQ. ID. NO. 25]
EC50 (aequorin functional assay) (human MCH-1R [1]): > 1000 nM
Activation % at 10 µM (aequorin functional assay) [2]: 39%
EC50 (aequorin functional assay) [2]: > 10000 nM
% @ concentration (human MCH-1R [3]): 80 % @ 1 µM
IC50 [4]: 4.9 nM

Ac-RCML[dS]RVYRPC-NH2 (disulfide 2-11 (inferred), also called D-Ser^10) [SEQ. ID. NO. 19]
Activation % at 10 µM (aequorin functional assay) (human MCH-1R [1]): 47%
EC50 (aequorin functional assay) (human MCH-1R [1]): 2560 nM
Activation % at 10 µM (aequorin functional assay) [2]: 113%
EC50 (aequorin functional assay) [2]: 7 nM
IC50 (human MCH-1R [3]): 31 nM
IC50 [4]: 1.6 nM

B1: SEQ. ID. NO. 11 (peptide)
peptide: Ac-RCML[Aib]RVYRPC-NH2
modifications: disulfide 2-11
SMILES: CSCC[C@@H]1NC(=O)[C@@H](NC(=O)[C@H](CCCNC(=N)N)NC(C)=O)CSSC[C@@H](C(N)=O)NC(=O)[C@@H]2CCCN2C(=O)[C@H](CCCNC(=N)N)NC(=O)[C@H](Cc2ccc(O)cc2)NC(=O)[C@H](C(C)C)NC(=O)[C@H](CCCNC(=N)N)NC(=O)C(C)(C)NC(=O)[C@H](CC(C)C)NC1=O
notes: also called Aib^10
Activation % at 10 µM (aequorin functional assay) (human MCH-1R [1]): 22%
EC50 (aequorin functional assay) (human MCH-1R [1]): 1900 nM
Activation % at 10 µM (aequorin functional assay) [2]: 104%
EC50 (aequorin functional assay) [2]: 24 nM
IC50 (human MCH-1R [3]): 90 nM
IC50 [4]: 2.2 nM

B2: SEQ. ID. NO. 13 (peptide)
peptide: Ac-RCML[dA]RVYRPC-NH2
modifications: disulfide 2-11
SMILES: CSCC[C@@H]1NC(=O)[C@@H](NC(=O)[C@H](CCCNC(=N)N)NC(C)=O)CSSC[C@@H](C(N)=O)NC(=O)[C@@H]2CCCN2C(=O)[C@H](CCCNC(=N)N)NC(=O)[C@H](Cc2ccc(O)cc2)NC(=O)[C@H](C(C)C)NC(=O)[C@H](CCCNC(=N)N)NC(=O)[C@@H](C)NC(=O)[C@H](CC(C)C)NC1=O
notes: also called D-Ala^10
Activation % at 10 µM (aequorin functional assay) (human MCH-1R [1]): 40%
EC50 (aequorin functional assay) (human MCH-1R [1]): 1360 nM
Activation % at 10 µM (aequorin functional assay) [2]: 103%
EC50 (aequorin functional assay) [2]: 16 nM
IC50 (human MCH-1R [3]): 490 nM
IC50 [4]: 3.2 nM

RCMLGXVYRPC (Harg^11 (homoarginine), also called Harg^11) [SEQ. ID. NO. 24]
Activation % at 10 µM (aequorin functional assay) (human MCH-1R [1]): 72%
EC50 (aequorin functional assay) (human MCH-1R [1]): 1200 nM
Activation % at 10 µM (aequorin functional assay) [2]: 43%
EC50 (aequorin functional assay) [2]: > 10000 nM
IC50 (human MCH-1R [3]): 6.9 nM
IC50 [4]: 0.4 nM

Ac-RCML[dN]RVYRPC-NH2 (disulfide 2-11 (inferred), also called D-Asn^10) [SEQ. ID. NO. 18]
Activation % at 10 µM (aequorin functional assay) (human MCH-1R [1]): 39%
EC50 (aequorin functional assay) (human MCH-1R [1]): 3000 nM
Activation % at 10 µM (aequorin functional assay) [2]: 106%
EC50 (aequorin functional assay) [2]: 24 nM
IC50 (human MCH-1R [3]): 97 nM
IC50 [4]: 2.3 nM

RCMLXRVYRPC (Phg^10 (phenylglycine), also called Phg^10) [SEQ. ID. NO. 12]
Activation % at 10 µM (aequorin functional assay) (human MCH-1R [1]): 0.1%
EC50 (aequorin functional assay) (human MCH-1R [1]): > 10000 nM
Activation % at 10 µM (aequorin functional assay) [2]: 80%
EC50 (aequorin functional assay) [2]: 140 nM
IC50 (human MCH-1R [3]): 2.9 nM
IC50 [4]: 312 nM

Ac-RCML[dCha]RVYRPC-NH2 (disulfide 2-11 (inferred), also called D-Cha^10) [SEQ. ID. NO. 16]
Activation % at 10 µM (aequorin functional assay) (human MCH-1R [1]): 0.1%
EC50 (aequorin functional assay) (human MCH-1R [1]): > 10000 nM
Activation % at 10 µM (aequorin functional assay) [2]: 74%
EC50 (aequorin functional assay) [2]: 207 nM
IC50 (human MCH-1R [3]): 11 nM
IC50 [4]: 74 nM
